# Results as given in article PMC10646254.
# Legend:
# SP3 = SP3 (UniProt Q02447); experiment: co-immunoprecipitation, western blot; settings: reference: wild type; sites T361,T366,S381,S387
# SP1 = SP1 (UniProt P08047); experiment: co-immunoprecipitation, western blot; settings: reference: wild type; sites T361,T366,S381,S387
substance,measurement,setting,value
ELK4 (from UniProt P28324) 4MA (T361/T366/S381/S387A),binding against the reference,SP3,weaker
same,binding against the reference,SP1,weaker
